Reference: patent US20160264649A1

Columns and labels:
Assay in all cases: cell-based or functional assay
[1] = target: HIV-1 IAVI-C22 Env (HIV-1)
[2] = target: HIV-1 MGRM-D-012 Env (HIV-1)
[3] = target: HIV-1 MGRM-C-008 Env on pseudovirus (HIV-1)
[4] = target: HIV-1 MGRM-F1-018 Env (HIV-1)
[5] = target: HIV-1 SC422661.8 (Acute) Env on pseudovirus (HIV-1)
[6] = target: HIV-1 MGRM-AG-002 Env (HIV-1)
[7] = target: HIV-1 MGRM-D-026 Env (HIV-1)
[8] = target: HIV-1 MGRM-C-024 Env on pseudovirus (HIV-1)
[9] = target: HIV-1 MGRM-C-014 Env on pseudovirus (HIV-1)
[10] = target: HIV-1 APV_13 Env on pseudovirus (HIV-1)
[11] = target: HIV-1 MGRM-C-012 Env on pseudovirus (HIV-1)
[12] = target: HIV-1 MGRM-G-027 Env (HIV-1)
[13] = target: HIV-1 94UG114 Env (HIV-1)
aMLV envelope = target: aMLV envelope
[14] = target: HIV-1 MGRM-AE-007 Env (HIV-1)
[15] = target: HIV-1 MGRM-C-023 Env on pseudovirus (HIV-1)
[16] = target: HIV-1 MGRM-G-014 Env (HIV-1)
[17] = target: HIV-1 MGRM-Chronic-B-001 Env on pseudovirus (HIV-1)
[18] = target: HIV-1 LAVI_C22 Env on pseudovirus (HIV-1)
[19] = target: HIV-1 MGRM-G-011 Env (HIV-1)
[20] = target: HIV-1 MGRM-G-009 Env (HIV-1)
[21] = target: HIV-1 MGRM-AE-005 Env (HIV-1)
[22] = target: HIV-1 MGRM-C-007 Env on pseudovirus (HIV-1)
[23] = target: HIV-1 MGRM-C-020 Env on pseudovirus (HIV-1)
[24] = target: HIV-1 MGRM-C-022 Env on pseudovirus (HIV-1)
[25] = target: HIV-1 MGRM-F1-010 Env (HIV-1)
[26] = target: HIV-1 MGRM-AG-011 Env (HIV-1)
[27] = target: HIV-1 MGRM-AG-006 Env (HIV-1)
[28] = target: HIV-1 MGRM-D-004 Env (HIV-1)
[29] = target: HIV-1 MGRM-F1-012 Env (HIV-1)
[30] = target: HIV-1 MGRM-G-013 Env (HIV-1)
[31] = target: HIV-1 98CN006 Env on pseudovirus (HIV-1)
[32] = target: HIV-1 PVO.4 (Acute) Env on pseudovirus (HIV-1)
[33] = target: HIV-1 MGRM-AE-003 Env (HIV-1)
[34] = target: HIV-1 MGRM-Chronic-B-012 Env on pseudovirus (HIV-1)
[35] = target: HIV-1 92UG046 Env (HIV-1)
[36] = target: HIV-1 MGRM-D-024 Env (HIV-1)
[37] = target: HIV-1 MGRM-C-019 Env on pseudovirus (HIV-1)
[38] = target: HIV-1 97ZA012 Env on pseudovirus (HIV-1)
[39] = target: HIV-1 MGRM-F1-008 Env (HIV-1)
[40] = target: HIV-1 IAVI-C18 Env (HIV-1)
[41] = target: HIV-1 93IN905 Env (HIV-1)
[42] = target: HIV-1 MGRM-F1-006 Env (HIV-1)
[43] = target: HIV-1 MGRM-Chronic-B-018 Env on pseudovirus (HIV-1)
[44] = target: HIV-1 MGRM-G-025 Env (HIV-1)
[45] = target: HIV-1 MGRM-C-001 Env on pseudovirus (HIV-1)
[46] = target: HIV-1 MGRM-Chronic-B-023 Env on pseudovirus (HIV-1)
[47] = target: HIV-1 MGRM-AG-001 Env (HIV-1)
[48] = target: HIV-1 MGRM-G-015 Env (HIV-1)
[49] = target: HIV-1 THR0.18 (Acute) Env on pseudovirus (HIV-1)
HIV-1 APV-17 Env (HIV-1) = target: HIV-1 APV-17 Env (HIV-1)
[50] = target: HIV-1 MGRM-D-016 Env (HIV-1)

Question: For 4E10 (antibody), which neutralization IC50 [1] is on record?
Answer: 1.02 mg/L

Question: And the neutralization IC90 [1]?
Answer: 16.4 mg/L

Question: And the IC50 (µg/ml), pseudovirus neutralization [2]?
Answer: 1.13 µg/mL

Question: What about the IC50 [3] of the same substance?
Answer: 2.97 mg/L

Question: What about the IC50 (pseudovirus neutralization) [4] of the same substance?
Answer: 3.6 mg/L

Question: And the IC50 [5]?
Answer: 6.35 mg/L

Question: And the IC50 (µg/ml), pseudovirus neutralization [6]?
Answer: 0.8 µg/mL

Question: What about the IC50 (µg/ml), pseudovirus neutralization [7] of the same substance?
Answer: 2.95 µg/mL

Question: What about the IC50 [8] of the same substance?
Answer: 22.6 mg/L

Question: What about the IC50 [9] of the same substance?
Answer: 2.48 mg/L

Question: And the IC50 [10]?
Answer: 7.33 mg/L

Question: And the IC50 [11]?
Answer: 0.44 mg/L

Question: What about the IC50 (µg/ml), pseudovirus neutralization [12] of the same substance?
Answer: 1.19 µg/mL

Question: What about the IC50 (µg/ml), pseudovirus neutralization [13] of the same substance?
Answer: 9.72 µg/mL

Question: And the neutralization IC50 (aMLV envelope)?
Answer: > 50 mg/L

Question: What about the neutralization IC90 (aMLV envelope) of the same substance?
Answer: > 50 mg/L

Question: What about the IC50 (µg/ml), pseudovirus neutralization [14] of the same substance?
Answer: 0.45 µg/mL

Question: And the IC50 [15]?
Answer: 1.95 mg/L

Question: What about the IC50 (µg/ml), pseudovirus neutralization [16] of the same substance?
Answer: 13.7 µg/mL

Question: And the IC50 [17]?
Answer: 1.46 mg/L

Question: What about the IC50 [18] of the same substance?
Answer: 2.02 mg/L

Question: And the IC50 (µg/ml), pseudovirus neutralization [19]?
Answer: 1.44 µg/mL

Question: And the IC50 (µg/ml), pseudovirus neutralization [20]?
Answer: 1.34 µg/mL

Question: And the IC50 (µg/ml), pseudovirus neutralization [21]?
Answer: 0.47 µg/mL

Question: What about the IC50 [22] of the same substance?
Answer: 5.84 mg/L

Question: What about the IC50 [23] of the same substance?
Answer: 2.8 mg/L

Question: What about the IC50 [24] of the same substance?
Answer: 5.71 mg/L

Question: What about the IC50 (pseudovirus neutralization) [25] of the same substance?
Answer: 3.69 mg/L

Question: And the IC50 (µg/ml), pseudovirus neutralization [26]?
Answer: 1.36 µg/mL

Question: And the IC50 (µg/ml), pseudovirus neutralization [27]?
Answer: 1.76 µg/mL

Question: What about the IC50 (µg/ml), pseudovirus neutralization [28] of the same substance?
Answer: 1.58 µg/mL

Question: What about the IC50 (pseudovirus neutralization) [29] of the same substance?
Answer: 0.37 mg/L

Question: What about the IC50 (µg/ml), pseudovirus neutralization [30] of the same substance?
Answer: 1.15 µg/mL

Question: What about the IC50 [31] of the same substance?
Answer: 1.91 mg/L

Question: And the IC50 [32]?
Answer: 18.3 mg/L

Question: And the IC50 (µg/ml), pseudovirus neutralization [33]?
Answer: 0.34 µg/mL

Question: And the IC50 [34]?
Answer: 48 mg/L

Question: And the IC50 (µg/ml), pseudovirus neutralization [35]?
Answer: 12.2 µg/mL

Question: And the IC50 (µg/ml), pseudovirus neutralization [36]?
Answer: 3.6 µg/mL

Question: What about the IC50 [37] of the same substance?
Answer: 3.49 mg/L

Question: And the IC50 [38]?
Answer: 4.7 mg/L

Question: And the IC50 (pseudovirus neutralization) [39]?
Answer: 2.75 mg/L

Question: What about the neutralization IC50 [40] of the same substance?
Answer: > 50 mg/L

Question: What about the neutralization IC90 [40] of the same substance?
Answer: > 50 mg/L

Question: What about the neutralization IC50 [41] of the same substance?
Answer: 1.55 mg/L

Question: And the neutralization IC90 [41]?
Answer: 12.8 mg/L

Question: And the IC50 (pseudovirus neutralization) [42]?
Answer: 1.01 mg/L

Question: What about the IC50 [43] of the same substance?
Answer: 23.2 mg/L

Question: What about the IC50 (µg/ml), pseudovirus neutralization [44] of the same substance?
Answer: 1.7 µg/mL

Question: And the IC50 [45]?
Answer: 5.66 mg/L

Question: And the IC50 [46]?
Answer: 27.9 mg/L

Question: What about the IC50 (µg/ml), pseudovirus neutralization [47] of the same substance?
Answer: 1.12 µg/mL

Question: What about the IC50 (µg/ml), pseudovirus neutralization [48] of the same substance?
Answer: 1.07 µg/mL

Question: And the IC50 [49]?
Answer: 4.68 mg/L

Question: And the neutralization IC50 (HIV-1 APV-17 Env (HIV-1))?
Answer: 5.1 mg/L

Question: What about the IC50 (µg/ml), pseudovirus neutralization [50] of the same substance?
Answer: 15.4 µg/mL

Question: Which results are given for 1496_C09 (PG9) (TCN-109) (antibody)?
Answer: neutralization IC50 [1]: 24.9 mg/L; IC50 (µg/ml), pseudovirus neutralization [2]: 9.31 µg/mL; IC50 (pseudovirus neutralization) [4]: 0.03 mg/L; IC50 [5]: 0.79 mg/L; IC50 (µg/ml), pseudovirus neutralization [6]: 0.04 µg/mL; IC50 (µg/ml), pseudovirus neutralization [7]: 17.5 µg/mL; IC50 [8]: 0.22 mg/L; IC50 [9]: 0.64 mg/L; IC50 [11]: 0.24 mg/L; IC50 (µg/ml), pseudovirus neutralization [12]: 0.01 µg/mL; IC50 [15]: 0.51 mg/L; IC50 (µg/ml), pseudovirus neutralization [16]: 6.32 µg/mL; IC50 (µg/ml), pseudovirus neutralization [19]: 0.19 µg/mL; IC50 (µg/ml), pseudovirus neutralization [20]: 4.9 µg/mL; IC50 (µg/ml), pseudovirus neutralization [21]: 0.16 µg/mL; IC50 [22]: 0.09 mg/L; IC50 [24]: 0.19 mg/L; IC50 (pseudovirus neutralization) [25]: 0.03 mg/L; IC50 (µg/ml), pseudovirus neutralization [26]: 0.01 µg/mL; IC50 (µg/ml), pseudovirus neutralization [28]: 0.03 µg/mL; IC50 (pseudovirus neutralization) [29]: 0.01 mg/L; IC50 [32]: 4.01 mg/L; IC50 [34]: 0.91 mg/L; IC50 (µg/ml), pseudovirus neutralization [35]: 0.64 µg/mL; IC50 (µg/ml), pseudovirus neutralization [36]: 0.03 µg/mL; IC50 [37]: 0.01 mg/L; IC50 [38]: 1.27 mg/L; neutralization IC50 [40]: 0.0535 mg/L; neutralization IC90 [40]: 0.866 mg/L; neutralization IC90 [41]: 1.89 mg/L; IC50 (pseudovirus neutralization) [42]: 1.45 mg/L; IC50 [43]: 0.16 mg/L; IC50 [46]: 0.04 mg/L; IC50 (µg/ml), pseudovirus neutralization [47]: 8.83 µg/mL; IC50 (µg/ml), pseudovirus neutralization [48]: 1.51 µg/mL; IC50 [49]: 12.4 mg/L; neutralization IC50 (HIV-1 APV-17 Env (HIV-1)): 26.4 mg/L; IC50 (µg/ml), pseudovirus neutralization [50]: 0.1 µg/mL
